Measurements from PMC4427200 (Acta Crystallographica Section D: Biological Crystallography, 2015).

What was measured:
AroD = biological target: T1, AroD (Salmonella enterica, UniProt P58687); assay: SPR, single binding isotherm fitting
T1 construct: source cited as Light et al., 2013; used as SPR control protein
T1 sequence (P58687 1-252): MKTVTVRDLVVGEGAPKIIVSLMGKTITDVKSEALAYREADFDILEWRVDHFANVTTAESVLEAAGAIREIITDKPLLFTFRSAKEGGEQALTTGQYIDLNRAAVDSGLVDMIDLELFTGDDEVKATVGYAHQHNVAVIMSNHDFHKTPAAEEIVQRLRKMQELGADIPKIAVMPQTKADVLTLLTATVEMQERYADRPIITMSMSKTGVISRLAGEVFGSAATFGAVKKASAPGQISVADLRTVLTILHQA
From the text: SPR, single binding isotherm fitting on AroD | each of the proteins selectively responded to its natural ligand, NADH and DQA, respectively

SaBADH [1] = biological target: T2, SaBADH (Staphylococcus aureus, UniProt A0A0H2X0S3); assay: SPR, immobilized SaBADH; type: binding; conditions: 2 mM ADP, pH 5.0-8.0, 298 K, two-day-old surface
T2 construct: gene betB; pMCSG7 tagged protein (Ni-NTA), E. coli BL21(DE3)/pMAGIC; tetramer/dimer; G234S cloned in p15TV-LIC
T2 sequence (A0A0H2X0S3 1-496): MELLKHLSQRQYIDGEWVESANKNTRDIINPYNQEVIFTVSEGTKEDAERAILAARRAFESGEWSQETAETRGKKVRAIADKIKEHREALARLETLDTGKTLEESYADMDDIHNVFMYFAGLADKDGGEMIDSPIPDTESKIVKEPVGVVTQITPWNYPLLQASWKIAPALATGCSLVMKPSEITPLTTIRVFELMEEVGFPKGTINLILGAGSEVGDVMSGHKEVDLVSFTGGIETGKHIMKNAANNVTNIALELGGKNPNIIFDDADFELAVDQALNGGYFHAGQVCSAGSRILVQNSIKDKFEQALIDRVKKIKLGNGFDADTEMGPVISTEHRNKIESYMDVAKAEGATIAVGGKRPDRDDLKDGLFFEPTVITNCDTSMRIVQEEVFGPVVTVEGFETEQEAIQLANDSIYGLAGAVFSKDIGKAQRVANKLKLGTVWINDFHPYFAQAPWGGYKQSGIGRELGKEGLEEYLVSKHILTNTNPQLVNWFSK

SaBADH [2] = biological target: T2, SaBADH; assay: SPR, immobilized SaBADH(BME+); type: binding
SaBADH [3] = biological target: T2, SaBADH; assay: NADH absorbance at […] nm; type: biochemical; conditions: substrate inhibition; co-substrate NAD+; 100 mM potassium phosphate pH 8.0, 303 K
[4] = biological target: Gly234Ser mutant of SaBADH (G234S-SaBADH) (Staphylococcus aureus COL); assay: crystal structure; X-ray structures of apo and NAD-bound forms, with and without BME; sitting-drop vapor diffusion at 295 K; assemblies analysed with PISA
[5] = biological target: betaine aldehyde dehydrogenase SACOL2628 from Staphylococcus aureus COL (SaBADH), wild type (Staphylococcus aureus COL); assay: dynamic light scattering; SaBADH^BME(−) 10-100 uM in 10 mM Tris-HCl pH 8.3, 0.5 mM TCEP, no added salt, 298 K
[6] = biological target: betaine aldehyde dehydrogenase SACOL2628 from Staphylococcus aureus COL (SaBADH), wild type (Staphylococcus aureus COL); assay: SEC-MALS; SaBADH^BME(+) 2 mg/ml on Superdex 200 10/300 GL in 10 mM Tris-HCl pH 8.3, 500 mM NaCl, 5 mM BME, 295 K
[7] = biological target: betaine aldehyde dehydrogenase SACOL2628 from Staphylococcus aureus COL (SaBADH), wild type (Staphylococcus aureus COL); assay: dynamic light scattering; SaBADH^BME(−) 10-100 uM in 10 mM Tris-HCl pH 8.3, 0.5 mM TCEP, with 0.5-2.5 M KCl, 298 K
[8] = biological target: betaine aldehyde dehydrogenase SACOL2628 from Staphylococcus aureus COL (SaBADH), wild type (Staphylococcus aureus COL); assay: dynamic light scattering; SaBADH^BME(−) 10-100 uM in 10 mM Tris-HCl pH 8.3, 0.5 mM TCEP, with 0.5-2.5 M NaCl, 298 K
[9] = biological target: betaine aldehyde dehydrogenase SACOL2628 from Staphylococcus aureus COL (SaBADH), wild type (Staphylococcus aureus COL); assay: crystal structure; X-ray structures of apo and NAD-bound forms, with and without BME; sitting-drop vapor diffusion at 295 K; assemblies analysed with PISA
purified protein [10] = substrate: NC(=O)c1ccc[n+]([C@@H]2O[C@H](COP(=O)(O)OP(=O)(O)OC[C@H]3O[C@@H](n4cnc5c(N)ncnc54)[C@H](O)[C@@H]3O)[C@@H](O)[C@H]2O)c1; assay: purified protein; conditions: co-substrate betaine aldehyde, 100 mM potassium phosphate pH 8.0, 303 K, 30.0 °C, varied: cofactor
purified protein [11] = substrate: NC(=O)c1ccc[n+]([C@@H]2O[C@H](COP(=O)(O)OP(=O)(O)OC[C@H]3O[C@@H](n4cnc5c(N)ncnc54)[C@H](OP(=O)(O)O)[C@@H]3O)[C@@H](O)[C@H]2O)c1; assay: purified protein; conditions: co-substrate betaine aldehyde, 100 mM potassium phosphate pH 8.0, 303 K, 30.0 °C, varied: cofactor

Molecule: O=C1C[C@@](O)(C(=O)O)C[C@@H](O)[C@@H]1O [3-dehydroquinic acid]
- Kd (AroD): 244 µM

Molecule: Nc1ncnc2c1ncn2[C@@H]1O[C@H](COP(=O)(O)OP(=O)(O)O)[C@@H](O)[C@H]1O [ADP]
- SPR, immobilized SaBADH (SaBADH [1]): An acidic pH favored the ADP–SaBADH interaction

Molecule: NC(=O)C1=CN([C@@H]2O[C@H](COP(=O)(O)OP(=O)(O)OC[C@H]3O[C@@H](n4cnc5c(N)ncnc54)[C@H](O)[C@@H]3O)[C@@H](O)[C@H]2O)C=CC1 [NADH]
- Kd (SaBADH [2]): 4.5 µM

Molecule: NC(=O)c1ccc[n+]([C@@H]2O[C@H](COP(=O)(O)OP(=O)(O)OC[C@H]3O[C@@H](n4cnc5c(N)ncnc54)[C@H](O)[C@@H]3O)[C@@H](O)[C@H]2O)c1 [NAD^+]
- Kd (SaBADH [2]): 19.3 µM

Molecule: C[N+](C)(C)CC=O [betaine aldehyde]
- Betaine aldehyde (SaBADH [3]): 0.34 ± 0.06 mM

Molecule: Gly234Ser mutant of SaBADH (G234S-SaBADH) (enzyme)
- stoichiometry N [4]: 4

Molecule: betaine aldehyde dehydrogenase SACOL2628 from Staphylococcus aureus COL (SaBADH), wild type (enzyme)
- stoichiometry N [5]: 2
- stoichiometry N [6]: 4
- stoichiometry N [7]: 2
- stoichiometry N [8]: 4
- stoichiometry N [9]: 4

B1: SaBADH (Staphylococcus aureus subsp. aureus COL) (protein)
chain: MELLKHLSQRQYIDGEWVESANKNTRDIINPYNQEVIFTVSEGTKEDAERAILAARRAFESGEWSQETAETRGKKVRAIADKIKEHREALARLETLDTGKTLEESYADMDDIHNVFMYFAGLADKDGGEMIDSPIPDTESKIVKEPVGVVTQITPWNYPLLQASWKIAPALATGCSLVMKPSEITPLTTIRVFELMEEVGFPKGTINLILGAGSEVGDVMSGHKEVDLVSFTGGIETGKHIMKNAANNVTNIALELGGKNPNIIFDDADFELAVDQALNGGYFHAGQVCSAGSRILVQNSIKDKFEQALIDRVKKIKLGNGFDADTEMGPVISTEHRNKIESYMDVAKAEGATIAVGGKRPDRDDLKDGLFFEPTVITNCDTSMRIVQEEVFGPVVTVEGFETEQEAIQLANDSIYGLAGAVFSKDIGKAQRVANKLKLGTVWINDFHPYFAQAPWGGYKQSGIGRELGKEGLEEYLVSKHILTNTNPQLVNWFSK
- Km (purified protein [10]): 430 ± 30 µM
- Km (purified protein [11]): 2260 ± 350 µM
